Source: patent publication US7169604B1, “Method for PR-39 peptide mediated selective inhibition of IκBα degradation” (Beth Israel Deaconess Medical Center, priority 1998, dated 2007)
Ends that are not written are not given here.

Columns and labels:
20S proteasome = target: T1, 20S proteasome (Homo sapiens, UniProt P25788); assay: Co-immunoprecipitation of PR-39 and 20S subunits in ECV cells; format: binding; settings: ECV304 cells transfected with PR-39 constructs; anti-PR-39 antibody
T1 construct: endogenous in cells; host or cells: ECV304 cells stably expressing porcine PR-39 constructs
Source text: In order to confirm that PR-39 and the a7 subunit interact in cells, a polyclonal anti-PR-39 antibody was used to immunoprecipitate PR-39 protein from EVC304 cells transfected with cDNA constructs corresponding either to the full length (EVC-PR-39) or exon 4 (39 amino acid C-terminal domain) (ECV-E4) of the porcine PR-39 gene.
Full-length porcine cDNA (containing the leader sequence) and a cDNA construct corresponding to the 4th exon of porcine PR-39 gene were cloned into eukaryotic expression vector pGRE5-2 (USB) and used to stably transfect an immortalized human endothelial cell line (ECV304, ATCC). For co-immunoprecipitation, wild type ECV, full-length PR-39 (ECV-PR-39) and exon 4 PR-39 (ECV-E4) transfected cells were cultured in 10% FBS-M199. Cells were lysed with the RIPA buffer, and equal amounts of total protein were pre-cleared with non-immune rabbit serum and protein G plus/protein A-agarose beads (Calbiochem). The cleared samples were incubated at 4° C. overnight with 20 μl of polyclonal anti-PR-39 antibody and 40 μl of protein G plus/protein A-agarose beads or with the beads alone. […]

NFκB = NFκB electromobility shift assay in mouse pancreas, caerulein-induced pancreatitis; format: in vivo; settings: 10 mg/kg i.v. 1 hour before caerulein; 30 min later
IκBα = target: T2, IκBα (Homo sapiens, UniProt P25963); assay: In vitro IκBα ubiquitination assay with HeLa cell extract; settings: cell free system, two different concentrations
T2 sequence (P25963 1-317): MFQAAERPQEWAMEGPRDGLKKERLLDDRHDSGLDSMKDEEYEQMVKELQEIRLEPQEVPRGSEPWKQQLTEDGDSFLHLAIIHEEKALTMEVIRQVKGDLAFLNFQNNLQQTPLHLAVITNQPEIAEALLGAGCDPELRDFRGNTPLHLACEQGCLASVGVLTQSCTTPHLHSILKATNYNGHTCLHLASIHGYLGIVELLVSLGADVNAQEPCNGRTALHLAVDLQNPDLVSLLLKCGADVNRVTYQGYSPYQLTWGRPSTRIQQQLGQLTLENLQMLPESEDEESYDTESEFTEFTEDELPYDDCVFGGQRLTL
Description: HeLa cells were harvested by centrifugation at 4,000 rpm. The packed cell volume was estimated, and the cells osmotically lysed by the addition of 5 volumes of hypotonic buffer (10 mM Tris-Cl, pH 7.9, 1.5 mM MgCl2, 10 mM KCl, 0.2 mM PMSF, 0.5 mM DTT). The mixture was incubated on ice for 10 minutes, then homogenized with 12 strokes of a Dounce homogenizer (B Type pestle). The crude lysate was centrifuged for 15 minutes at 4,000 rpm, followed by recentrifugation of the supernatant at 100,000×g for 30 minutes. This supernatant was concentrated by the addition of solid (NH4)2SO4 to 80% saturation, stirred at 4° C. for 30 minutes and centrifuged for 15 minutes at 12,000 rpm. The precipitate was resuspended in 1/5 volume of 20 mM Tris-Cl pH7.6, 20 mM KCl, 5 mM MgCl 2, 1 mM DTT, 0.5 mM PMSF, 5 μM Chymostatin and 20 μM E64, and dialyzed against >500 volumes of 20 mM Tris-Cl pH 7.6, 20 mM KCl, 5 mM MgCl2, 1 mM DTT, 10% glycerol at 4° C. overnight and stored at −70° C. until use.
PR-39 or control peptides were also added to individual reactions. […] The samples were then heated for 5 minutes at 95° C. and analyzed by SDA-PAGE on 4-15% acrylamide gradient gels (BioRad, Hurcules, Calif.). After electrophoresis, the gels were incubated with gentle stirring in 30% methanol 10% acetic acid, dried and analyzed using a Fuji phosphorimager. […]

Sequence: RRRPRPPYLPRPRPPPFFPPRLPPRIPPGFPPRFPPRFP [PR-39]
- binding to 20S proteasome (co-immunoprecipitation of α7 and α2 subunits) (20S proteasome): can bind to the 20S proteasome particle via an interaction with the a7 subunit
- NFκB gel shift in mouse pancreas (NFκB): almost complete disappearance of NFκB gel shift
- IκBα ubiquitination in vitro (IκBα): failed to affect IκBα ubiquitination
